US20070238143A1, “Metal ion mediated fluorescence superquenching assays, kits and reagents” (priority 2003, published 2007)
pIC50: −log10 of the molar value.

Assays:
[1] = target: T1, protein tyrosine phosphatase 1B (PTP-1B) (Homo sapiens, UniProt P18031); experiment: Protein tyrosine phosphatase 1B (PTP-1B) metal ion mediated superquenching assay, inhibition; format: biochemical; conditions: inhibitor curve; FIG. 7
T1 construct: purchased Biomol
T1 sequence (P18031 1-435): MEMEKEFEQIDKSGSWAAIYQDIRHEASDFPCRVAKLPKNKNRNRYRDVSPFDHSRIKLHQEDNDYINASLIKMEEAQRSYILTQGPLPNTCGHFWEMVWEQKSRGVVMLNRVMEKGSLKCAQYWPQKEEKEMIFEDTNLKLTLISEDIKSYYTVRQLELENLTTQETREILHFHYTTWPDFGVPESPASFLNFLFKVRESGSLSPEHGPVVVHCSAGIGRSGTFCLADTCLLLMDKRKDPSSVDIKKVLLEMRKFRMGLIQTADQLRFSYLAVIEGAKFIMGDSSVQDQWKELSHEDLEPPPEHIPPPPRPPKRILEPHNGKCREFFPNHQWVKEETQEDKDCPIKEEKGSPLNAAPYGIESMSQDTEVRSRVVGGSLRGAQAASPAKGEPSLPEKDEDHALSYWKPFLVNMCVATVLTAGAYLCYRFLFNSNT
Procedure: For detection of phosphatase activity:
Recombinant PKA was purchased from Promega. […] Polystyrene amine functionalized beads were obtained from Interfacial Dynamics.
The format was tested for detection of protein tyrosine phosphatase activity 1B (PTP-1B) on a peptide substrate of different length and sequence composition than the one used for PKA.

Rhodamine-LRRASLG = test system: T2, Rhodamine-LRRASLG
T2 sequence: LRRASLG

biotin-LRRASLG = test system: T3, biotin-LRRASLG
T3 sequence: LRRASLG

Rhodamine-LRRA(pS)LG = test system: T4, Rhodamine-LRRA(pS)LG
T4 sequence: LRRASLG

[2] = test system: myelin basic protein (MBP)

Molecule: CCCCCCCCCCCCCCCC(=O)C1=C(O)C(CO)OC1=O (stereo not shown) [RK-682]
- pIC50 [1]: 7.58

Molecule: Recombinant Protein Kinase A (PKA)
- endpoint measurement of PKA enzyme activity (polymer quench) (Rhodamine-LRRASLG): an increase in polymer quench correlates with enzyme concentration
- two-step PKA endpoint assay (fluorescence quench) (biotin-LRRASLG): the assays perform using either synthetic substrates with an N-terminal quencher or using biotinylated substrates to which a streptavidin-fluorescein conjugate is added

Molecule: Trypsin
- Sample (sensor fluorescence after trypsin reaction) (Rhodamine-LRRA(pS)LG): 42100
- Signal Increase (Rhodamine-LRRA(pS)LG): 34400
- Signal/Background (Rhodamine-LRRA(pS)LG): 5.42

Molecule: kinase PKCα
- blocking kinase assay (fluorescence turn-on) [2]: The resulting fluorescence correlates with the extent of mbp phosphorylation
